For data set [1], the system named is Peptide K2.
The test system of data set [2] is phosphorylated peptide p-K2.
The target in data set [3] is tau-protein extracted from bovine brain followed by purification (not phosphorylated by TPK-I) (UniProt P29172).
Sequence of tau-protein extracted from bovine brain followed by purification (not phosphorylated by TPK-I) (P29172 2-448): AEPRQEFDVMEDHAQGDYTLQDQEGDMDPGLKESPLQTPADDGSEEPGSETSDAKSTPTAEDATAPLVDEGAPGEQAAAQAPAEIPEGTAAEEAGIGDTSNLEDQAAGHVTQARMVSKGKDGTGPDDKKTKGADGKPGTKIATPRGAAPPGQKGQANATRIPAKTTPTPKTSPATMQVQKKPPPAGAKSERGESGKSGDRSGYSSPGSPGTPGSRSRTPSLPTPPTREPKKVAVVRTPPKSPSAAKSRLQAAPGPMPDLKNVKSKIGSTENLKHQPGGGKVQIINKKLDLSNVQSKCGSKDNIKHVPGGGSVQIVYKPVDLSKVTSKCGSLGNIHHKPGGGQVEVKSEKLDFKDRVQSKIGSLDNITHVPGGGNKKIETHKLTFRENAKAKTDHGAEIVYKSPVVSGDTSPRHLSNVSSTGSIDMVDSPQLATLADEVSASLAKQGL

For the substance “recombinant human TPK-I expressed in Escherichia coli BL21(DE3) from pET3C/TPKI (partially purified)”, the phosphorylation of peptide result in data set [1] was “that of K2 hardly proceeded”; in data set [2], “the phosphorylation of p-Ka proceeded”. Besides, the “phosphoric acid incorporated into tau-protein (phosphorylating method I)” value in data set [3] is recorded as 1.2 moles of phosphoric acid was incorporated into one molecule of tau-protein.

On to “recombinant human-originated tau-protein kinase I expressed in Sf9 insect cells (partially purified)”, for which the “initial speed of phosphorylation of peptide (phosphorylating method I)” value in data set [1] was “phosphorylation of K2 was slow and its initial speed was about one-tenth of that of p-K2”. In data set [2], the “phosphorylation of peptide (phosphorylating method I)” value is recorded as “the progress of phosphorylation of p-K2 was clearly noted”. Further, the “amount of phosphoric acid incorporated in tau-protein (phosphorylating method I, 32P)” value in data set [3] is listed as “incorporation of tau-protein into phosphoric acid was confirmed”.

With “tau-protein kinase II (TPK-II) purified from bovine brain microtubule”, in data set [1], the “phosphorylation of peptide (phosphorylating method II)” value was “phosphorylated peptide (hereinafter, abbreviated as "p-K2") was obtained”.

Source of the values: patent publication US20020058637.
